Experiment: yeast display, Sf9 membrane polyspecificity reagent, FACS + sequencing; frameworks hold sequencing errors
Summary of the method: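 Synthetic nanobody libraries on Saccharomyces cerevisiae BJ5465 were galactose-induced for 36–48 hours, stained 1 hour at 4 °C with 10% biotinylated, detergent-solubilized Sf9 membrane reagent and enriched on streptavidin microbeads. FACS then separated cells into low and high (top ~1%) gates by anti-HA (expression) and streptavidin (reagent binding) fluorescence. Genes were colony-PCR amplified, MiSeq 2 × 250 sequenced and CDR-length filtered. A clone's polyreactivity label is that of its gate of origin.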

Row | Sequence | polyreactivity (PSR sort gate)
1 | QVQLVESGGGLVQAGGSLRLSCAASGSTFYTNAMGWSRQAPGKQREFVAALSGRGSNTYYADSVKGRFTISRYNAKNTVYLQMNSLKPEDTAVYYCAARRLAGFGYWGQGTQVTVSS | high polyreactivity
2 | QVQLVESGGGLVQAGGSLRLSCAASGSIFRGNAMGWYRQAPGKERELDATISNGGSTNYADAVKGRFTISRDNAKNTVYLQMNSLKPEDTAVYYCAKPLYKTWWGYAYDYWGQGTQVTVSS | high polyreactivity
3 | QVQLVESGGGLVQAGGSLRLICAASGRIFITNTMGWYRQAPGKETELVAAISRTGGSTYYADSVKGRFTISRDNAKNTVYLQMNSLKPEDTAVYFCNAVVRGYAQGAGFDYWGQGTQVTVSS | high polyreactivity
4 | QVQLVESGGGLVQAGGSLRLSCAASGRTFFYYAMGWYRQAPGKERELVAAISGRGGRTYYADSVKGRFTISRDNAKNTVYLQMNSLKPEDTAVYYCNTRGTRIASGHYYWGQGTQVTVSS | high polyreactivity
5 | QVQHVESGGGLVQAGGSLRLSCAASGSTFGLYAMGWYRQAPGKERELVAAISRRGGSTYYADSVKGRLTISRDNAKNTVYLQMNSLRPVETAVYDCAAVTAYRFDTLGMDYWGQGTQVTVSS | high polyreactivity
6 | QVQLVESGGGLVQAGGSLRLSCAASGIIFYGYVMGWYRQAPGKERELVATITSSGGSTYYADSVKGRFTISRDNAKNTVYLQMNSLKPEDTAVYYCAAYYYYGAWVRHDYWGQGTQVTVSS | low polyreactivity
7 | QVQLVESGGGLVQAGGSLRLSCAASGRTFYEYAMGCYIPAPGKERELVAAITSGGTTYYADSVKGRFTISRDTAKNTVYLQMNSVKPEDTAVYYCAADRYYYYWGQGTQVTVSS | high polyreactivity
8 | QVQLVESGGGLVQAGGSLRLSCAGSGRIFVSYAMGWYRQAPGKERELVAAITRSGGSTYYADSVKGRFTISRDNAKNTVYLQMNSLKPEDTAVYYCNAYIPRTRYRSGYWGQGTQVTVSS | high polyreactivity
9 | QVQLVESGGGLVQAGGSLRLSCAASGFIFSSYAMGWYRQAPGKERELVAVITRSGRRTYYADSVKGRFTISRDNAKNTVYLQMNSLKPEDTAVYYCNATLPNEVAPNDYWGQGTQVTVSS | high polyreactivity
10 | QVQLVESGGGLVQAGGSLRLSCAASGSTFYVNTMGWYRQAPGKERELVAAITATGASTYYADSVKGRFTISRDNAKNTVYLQMNSLKPEDTAVYYCNVRLRIRSGYWGQGTQVTVSS | high polyreactivity
11 | QVQLVETGGGLVQAGGSLRLSCAASGIIFREYAMGWYRQAPGKEMELVAAITRSGGSTNYADSVKGRFTISRDNAKNTVYLLMNSLKPEDTAVYYCASDYQRNDFRWYDYWGQGTLVTVSS | low polyreactivity
12 | QVQLVESGGGLVQAGGSLRLSCAASGFTIRWYLMGWYRQAPGKERELVAAISWSGDRTYYADSVKGRFTISRDNAKNTVYLQMNSLKPEDTAVYYCNSLSAFQVDNYDYWGQGTQVTVSS | high polyreactivity
13 | QVQLVESGGGLVQAGGSLRLSCAASGSTFYNYAMGWYRQAPGKERELVASITWNGGSTYYADSVKGRFTISRDNAKNTVYLQMNSLKPEDTAVYYCAAEWTWTYPYDYWGQGTQVTVSS | low polyreactivity
14 | QVQLVESGGGLVQAGGSLRLSCAASGRIFTSYAMGWYRQAPGKERELVASITSGGRTDYADSVKGRFTISRDNAKNTVYVQMNSLKPEDTAVYYCNVGTRRALYYPYRPGRYDYWGQGTQVTVSS | low polyreactivity
15 | QVQLVESGGGLVQAGGRLRLSCAASGSTFFAYAMGWYRQAPGKQRELVAAITGRGSTYYADSVKGRFTISRDNAKNTVYLQMNSLKAEDTAVYYCAAQRSRRYYRLDFWGQGTQVTVSS | high polyreactivity
16 | QVQLVESGGGLVKAGGSLRLSCAASGFTFGYYTMGWYRQAPGKERELVAAISSSGGSTHYADSVKGRFTISRDNAKNTVYLQMNSLKPEDTAVYYCAARYINRYPKAQPTDRSIYYWGQGTQVTVSS | high polyreactivity
17 | QVQLVESGGGLVQAGGCLRLSCAASGYIFRVYDMGWYRQAPGKERELVAAISGSGGRTYYADSVKGRFTISRDNAKNTVYLQMISLKPEDTAVYDCSAYRVSEYDYWGQGTQVTVSS | high polyreactivity
18 | QVQLVESGGGLVQAGGSLRLSCAASGRIFYSYAMGWYRQAPGKERELVATISRRGGSTYYADSVKGRFTISRDNAKNTVYLQMNSLKPEDTAVYYCNKGIPTRSVRSYDYWGQGTQVTVSS | high polyreactivity
19 | QVQLVESGGGLVQAGGSLRLSCAASGSTFGYYAMGWNRQAPGKERELVATITWSGGSTNYADSVKGRFTISRDNAKNTVYLQMYSLKPEDTAVYYCAADLKYWYFGLAFIEVDYWGQGTQVTVSS | low polyreactivity
20 | QVQLEESGGGLVKAGGSIRLSCAASGLIFYSYAMVWYRHAPGKERELVAVITRSGGNTNYADSVKGRFTISRDNAKNTVYLQMNSRKPEDTAVYYCATRGIWKKVPYYYWGQGTQVTVSS | high polyreactivity
21 | QVQLVESGGGLVQAGGSLRLSCAASGSTFNGYAMGWSRQAPGKERELVAAISWSSGSTYYADSVKGRFTISRDNAKNTVYLQMNSLKPEDTAVYYCNKYYGYHKIKEYDYWGQGTQVTVSS | high polyreactivity
22 | QVQLVESGGGLVQAGGSLRLSCAASGSILSAYAMGWYRQAPGKERELVAAISWSGGSTYYADSVKGRFTISRDNAKNTVYLQMNSLKPEDTAVYYCATVNKKWRRYDYWGQGTQVTVSS | high polyreactivity

Row | Sequence | polyreactivity (PSR sort gate)
23 | QVQLVESGGGLVQAGGSLRLSCAASGRIFRTYTMGWYRQAPGKERELVAAISRSGASTYYADSVKGRFTISRDNAKNTVYLQMNSLKPEDTAVYYCAKLILSTALVSRPGVDYWGQGTQVTVSS | high polyreactivity
24 | QVQLVESGGGLVQAGGSLRLSCAASGRIFPHYAMGWFRQAPGKERELVAAISSGGRTNYADSVKGRFTISRDNAKNTVYLQMNSLKREDSAVYYCAAEAPFYVIGRRYRGYDYWGQGTQVTVSS | high polyreactivity
25 | QVQLVESGGGIVQAGGSLRLSCAASGSIFTHYAMGWDRQAPGKERELVATISSTGSTDYADSVKGRFTISRDNAKNTVFLQINSLKPEDTAVYYCAAVSFYKTRATYYFWYDYWGQGTQVTVSS | low polyreactivity
26 | QVHLVESGGGLVQAGGSLRLSSAPSGSTFDAYDMGWYRQAPGKESELVAAITSGGSTNYADSVKGRFTISRDNAKNTVYLQMNSLKPEDTAVYYCAASPYRGFVSRYGYWGQGTQVTLSS | low polyreactivity
27 | QDQLVESCGGLVQAGGSLRLSCAASGGIINGYTMGWYRQAPGKETDLVAAITGSGGSTYYADSVKGRYTISRDNAKNTVYLQMNSLKPEETAVYYCARDYHARPNCPRSDDYDYWGQGTQVTVSS | low polyreactivity
28 | QVQLVESGGGLVQAGGSLRLSCAASGITFPSYTMGWYRQAPGKERELVATIRNGGSTYYADSVKGRFTISRDNAKNTVYLHMNSLKPEDTAVYYCAAVPLWDYKVFYYLLYDYWGQGTQVTVSS | low polyreactivity
29 | QVQLVESGGGLVQAGGSLRLSCAASGRTFYSNARGWSRQAPGKERELVARISNGGSTHYADSVKGRFTISRDNAKNTVYLQMNSLKPEDTAVYYCNTDRGHFYTYPYTYYRLGYWGQGTQVTVSS | low polyreactivity
30 | QVQLVESGGGLVQAGGSLRLSCAASGRTLEHNAMGWYRQAPGKERELVAAISGSGGTTYYADSVKGRFTISRDNAKNTVYLQMNSLKPEDTAVYYCNAKLYRSFDYWGQGTQVTVSS | low polyreactivity
31 | QVQLVESGGGLVQAGGSLRLSCAASGRIFPGYDMGWYRQAPGKERELVAAISASGGSTYYADSVKGRFTISRDNAKNTVYLQMNSLKPEDTAVYYCNAVYRLIRFDYWGQGTQVTVSS | high polyreactivity
32 | QVQLVESGGGLVQAGGSLRLSCAASGSSFSPYAMGWYRQAPGKERELVAAINSGSSTNYADSVKGRFTISRDNAKNTVYLQMNSLQPEDTAVYYCAADGQLPPRGILASWEFDYWGQGTQVTVSS | low polyreactivity
33 | QVQLVESGGGLVQAGGSLRLICAASGSILYKYAMGWYRQAPGKERELVAAISSRGGNTYYADSVKGRFTISRDNAKNTVYLHMNSLKPEDTAVYYCAADMWAGKYGEYDYWGQGTQVTVSS | high polyreactivity
34 | QVQLVESGGGLVQAGGSLRLSCAASGITFCYYVMGWYRQAPGKERELVAAISSGSSTYYADSVKGRFTISRDNAKNTVYLQMNSLKPEDTAVYYCAAESVYWLEFRYYYWGQGTQVTVSS | low polyreactivity
35 | QVQLVESGGGLVQAGGSLRLSCAASGSIFYVYAMGWYRQAPGKERELDAGITTSGGSTYYADSVKGRFTISRDNAKNTVYLQMKSLKPEDTAVYYCATRNAFTAGSYNVYYGEYYWGQGTQVTVSS | low polyreactivity
36 | QVQLVESGGGLVQAGGSLRLSCAASGSIFVPYAMGWYRQAPGKERELVAAISSRGGRTYYADSVKGRFTISRDNAKNTVYLQMNSLKPEDTAVYYCNKTAGSHIPRLEYWGQGTQVTVSS | low polyreactivity
37 | QDQLVESGGGLVQAGGSLRLSCAASGSIFGVYAMGWYRQAPGKERELVAVISFNSGSTNYADSVKGRFTISRDNAKNTVYLQMNSLKPEDTAVYYCNSDAWHETQVSGYSWGQGTQVTVSS | low polyreactivity
38 | QVQLVESGGCLDQAGGSLRLSSAASGRIFFGYAMGWYRQAPGKEREFVAAISSVGSTNYADSVKGRFTISRDNAKNTVYLQMNSLKPEDTAVYYCAAAPRSGGKYGSDGGDYWGQGTQVTVSS | low polyreactivity
39 | QVQLVESGGGLVQAGGSLRLSCAASGSTFTLYAMGWYRQAPGKERELVAAISGIGDSTYYADSVKGRFTISRDNAKNTVYLQMNSLKPEDTAVYYCAADGEYRYDWEYESWGQGTKVTVSS | low polyreactivity
40 | QVQLVESGGGLVQAGGSLRLSCAASGFIFSYYTMGWYRQAPGKEWEVVAAIRSSGGSTYADSVKGRFTISRDNAKNTVYLQKNSLKPEDTAVYYCAAVQTWRWVYARDYWGQGTQVTVSS | high polyreactivity
41 | QVQLVESGGGLVQAGGSLRLSCAASGRIFPHYTMGWYRQAPGKERELVATISGRGGSTYYADSVKGRFTISRDIAKNTVYLQMNSLKPEDTAVYYCAREGCRRYAGLYYWGQGTQVTVSS | high polyreactivity
42 | QVQLLESGGGLVQAGGSLRISCAASGFTFWYYAMGWYRQAPGKERELVAAITSSGGSTYYADSVKGRFTISRDNAKNTVYLQMNSLKPEDTAVYYCAAGAPYRYYYWGQGTQVTVSS | high polyreactivity
43 | QVQLQESGGGLVQAGGSLRLSCAASCTISQEDWMGSYRQAPGKEREFVAAIGLGSNTNYADSLKGRFTISRDNAKNTVYLQMNSLKPEDTAVYYCAVSVWQYSDHVYRGQGTQVTVSS | low polyreactivity

Source: the nanobody polyreactivity screen of Harvey et al. (2022)
